Experimental data as given in article PMC10397247.
Like-named read-outs stand apart in the source and are kept apart here.

How the values were obtained:
4H3855-AA = biological target: T1, 4H3855-AA; assay: two-hybrid library CCmax; settings: mean of both orientations;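 further: natural log of median RNA to DNA barcode read ratio; higher means stronger binding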
T1 chain: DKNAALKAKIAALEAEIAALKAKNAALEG

4H4001-AA = biological target: T2, 4H4001-AA; assay: two-hybrid library CCmax; settings: mean of both orientations;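 further: natural log of median RNA to DNA barcode read ratio; higher means stronger binding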
T2 chain: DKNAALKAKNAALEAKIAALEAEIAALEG

4H967-AA = biological target: T3, 4H967-AA; assay: two-hybrid library CCmax; settings: mean of both orientations;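 further: natural log of median RNA to DNA barcode read ratio; higher means stronger binding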
T3 chain: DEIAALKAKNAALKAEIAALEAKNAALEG

4H883-AA = biological target: T4, 4H883-AA; assay: two-hybrid library CCmax; settings: mean of both orientations;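 further: natural log of median RNA to DNA barcode read ratio; higher means stronger binding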
T4 chain: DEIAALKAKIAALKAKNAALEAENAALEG

4H717-AA = biological target: T5, 4H717-AA; assay: two-hybrid library CCmax; settings: mean of both orientations
T5 chain: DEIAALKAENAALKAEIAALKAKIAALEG

4H3782-AA = biological target: T6, 4H3782-AA; assay: two-hybrid library CCmax; settings: mean of both orientations
T6 chain: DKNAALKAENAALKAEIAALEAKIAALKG

4H3427-AA = biological target: T7, 4H3427-AA; assay: two-hybrid library CCmax; settings: mean of both orientations
T7 chain: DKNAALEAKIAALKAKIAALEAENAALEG

4H953-AA = biological target: T8, 4H953-AA; assay: two-hybrid library CCmax; settings: mean of both orientations
T8 chain: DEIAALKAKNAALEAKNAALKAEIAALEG

4H687-AA = biological target: T9, 4H687-AA; assay: two-hybrid library CCmax; settings: mean of both orientations
T9 chain: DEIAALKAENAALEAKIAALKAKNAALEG

4H797-AA = biological target: T10, 4H797-AA; assay: two-hybrid library CCmax; settings: mean of both orientations
T10 chain: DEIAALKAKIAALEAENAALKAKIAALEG

4H3438-AA = biological target: T11, 4H3438-AA; assay: two-hybrid library CCmax
T11 chain: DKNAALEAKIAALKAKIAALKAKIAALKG

4H568-AA = biological target: T12, 4H568-AA; assay: two-hybrid library CCmax; settings: mean of both orientations
T12 chain: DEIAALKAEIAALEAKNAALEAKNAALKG

4H918-AA = biological target: T13, 4H918-AA; assay: two-hybrid library CCmax; settings: mean of both orientations
T13 chain: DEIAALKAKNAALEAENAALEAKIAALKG

4H3354-AA = biological target: T14, 4H3354-AA; assay: two-hybrid library CCmax
T14 chain: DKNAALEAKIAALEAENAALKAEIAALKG

P7A-bH = biological target: T15, P7A-bH; assay: two-hybrid library CCNG1
T15 chain: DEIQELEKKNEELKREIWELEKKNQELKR

P5A-bH = biological target: T16, P5A-bH; assay: two-hybrid library CCNG1
T16 chain: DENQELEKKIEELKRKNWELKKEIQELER

P8A-bH = biological target: T17, P8A-bH; assay: two-hybrid library CCNG1
T17 chain: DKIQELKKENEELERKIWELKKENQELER

P4A-bH = biological target: T18, P4A-bH; assay: two-hybrid library CCNG1
T18 chain: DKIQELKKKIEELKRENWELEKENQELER

P3A-bH = biological target: T19, P3A-bH; assay: two-hybrid library CCNG1
T19 chain: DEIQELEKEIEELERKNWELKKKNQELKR

P9A-bH = biological target: T20, P9A-bH; assay: two-hybrid library CCNG1
T20 chain: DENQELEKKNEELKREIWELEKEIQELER

P6A-bH = biological target: T21, P6A-bH; assay: two-hybrid library CCNG1
T21 chain: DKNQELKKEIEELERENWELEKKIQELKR

P9mS = biological target: T22, P9mS; assay: two-hybrid library CCNG1
T22 chain: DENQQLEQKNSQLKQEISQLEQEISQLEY

P5mS = biological target: T23, P5mS; assay: two-hybrid library CCNG1
T23 chain: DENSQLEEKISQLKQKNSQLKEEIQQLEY

P7mS = biological target: T24, P7mS; assay: two-hybrid library CCNG1
T24 chain: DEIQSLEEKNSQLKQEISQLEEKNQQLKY

P6mS = biological target: T25, P6mS; assay: two-hybrid library CCNG1
T25 chain: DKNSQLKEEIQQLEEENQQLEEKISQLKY

P8mS = biological target: T26, P8mS; assay: two-hybrid library CCNG1
T26 chain: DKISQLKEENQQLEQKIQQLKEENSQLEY

DKNAALEAKIAALEAENAALKAEIAALKG [4H3354-AA] gave an interaction score (4H3855-AA) of -1.85, an interaction score (4H4001-AA) of -1.64 and an interaction score (4H967-AA) of -1.42. The interaction score (4H883-AA) was -2, the interaction score (4H717-AA) was -1.69 and the interaction score (4H3782-AA) was -1.79. For the same binder, the interaction score (4H3427-AA) was -1.79, the interaction score (4H953-AA) was -1.6 and the interaction score (4H687-AA) was -1.69. It also gave an interaction score (4H797-AA) of -0.991, an interaction score (4H3438-AA) of -0.709 and an interaction score (4H568-AA) of -1.54. The interaction score (4H918-AA) was -1.56 and the interaction score (4H3354-AA) was 2.03.

With DEIQELEKEIEELERKNWELKKKNQELKR [P3A-bH] the interaction score (P7A-bH) was 0.468, the interaction score (P5A-bH) was 0.779 and the interaction score (P8A-bH) was -1.03. For the same binder, the interaction score (P4A-bH) was 1.77, the interaction score (P3A-bH) was -0.68 and the interaction score (P9A-bH) was 0.465. The interaction score (P6A-bH) was 0.553.

DENSQLEEKISQLKQKNSQLKEEIQQLEY [P5mS] was tested, and the interaction score (P9mS) was -2.82, the interaction score (P5mS) was -1.66 and the interaction score (P7mS) was -1.25. It also gave an interaction score (P6mS) of -0.081 and an interaction score (P8mS) of -1.17.

In the case of DKIQELKKKNEELKRKNWELKKKIQELKR [P2A-bH], the interaction score (P7A-bH) is reported as -0.557, the interaction score (P5A-bH; mean of both orientations) is reported as -1.23 and the interaction score (P8A-bH) is reported as 0.132. The interaction score (P4A-bH) was 0.539, the interaction score (P3A-bH) was -1.95 and the interaction score (P9A-bH) was -1.02. For the same binder, the interaction score (P6A-bH) was -0.802.
